Test results as given in US20130251642A1 (US Dept. of Health and Human Services, published 2013).
Values belong to the binder of their own block, whether it stands above or below them.

Experiments:
cell surface human ROR1 [1] = molecular target: T1, cell surface human ROR1 (human, UniProt Q01973 30-937); assay: flow cytometry on primary CLL cells of one patient, IgG1 at 1 µg/mL
T1 construct: whole, on cells; The cell type of each entry is named under assay; also called HEK 293F/hROR1; HEK 293F cells stably transfected with human ROR1

cell surface human ROR1 [2] = molecular target: T1, cell surface human ROR1; assay: flow cytometry on primary CLL cells of one patient, IgG1 at 5 µg/mL
[3] = molecular target: T2, Fc-hROR1 (the three extracellular domains of human ROR1 fused to the Fc domain of human IgG1) (human, UniProt Q01973 30-406); assay: SPR on immobilized Fc-hROR1; bivalent IgG1 Y31 against monovalent Fab Y31
T2 construct: extracellular domain; also called human ROR1 (Fc-hROR1); not shown: Fc domain of human IgG1

Fc-hROR1ig [4] = molecular target: T3, Fc-hROR1ig (human, UniProt Q01973 30-147, limits assumed); assay: ELISA, Fc fusion of one or two domains of human ROR1 immobilized, antibody in IgG1 format, absorbance at 405 nm
T3 construct: domain: Ig; not shown: Fc domain (human IgG1 Fc is stated for Fc-hROR1; not restated for this construct)

Fc-hROR1kr [5] = molecular target: T4, Fc-hROR1kr (human, UniProt Q01973 312-391); assay: as above
T4 construct: domain: Kringle; not shown: Fc domain (human IgG1 Fc is stated for Fc-hROR1; not restated for this construct)

Fc-hROR1ig+fz = molecular target: T5, Fc-hROR1ig+fz (human, UniProt Q01973 30-299, limits assumed); assay: as above
T5 construct: domain: Ig and Frizzled; not shown: Fc domain (human IgG1 Fc is stated for Fc-hROR1; not restated for this construct)

Fc-hROR1ig [6] = molecular target: T3, Fc-hROR1ig; assay: ELISA on immobilized Fc-hROR1ig (Fab data not shown)
Fc-hROR1kr [7] = molecular target: T4, Fc-hROR1kr; assay: ELISA on immobilized Fc-hROR1kr (Fab data not shown)
[8] = molecular target: T2, Fc-hROR1 (the three extracellular …); assay: SPR on immobilized Fc-hROR1; bivalent IgG1 R12 against monovalent Fab R12
cell surface human ROR1 [9] = molecular target: T1, cell surface human ROR1; assay: flow cytometry on primary CLL cells of one patient, IgG1 at 0.1 µg/mL
[10] = molecular target: T6, Fc-mROR1 (mouse analogue of Fc-hROR1) (mouse, UniProt Q9Z139 30-406); assay: ELISA, antigen immobilized, antibody in IgG1 format, absorbance at 405 nm
T6 construct: extracellular domain; also called mouse ROR1 (Fc-mROR1); not shown: Fc domain (human IgG1 Fc is stated for Fc-hROR1; not restated for this construct)

Fc-hROR1fz+kr = molecular target: T7, Fc-hROR1fz+kr (human, UniProt Q01973 165-406, limits assumed); assay: ELISA, Fc fusion of one or two domains of human ROR1 immobilized, antibody in IgG1 format, absorbance at 405 nm
T7 construct: domain: Frizzled and Kringle; also called Fc-hROR1kr+fz; Fc-ROR1fz+kr; not shown: Fc domain (human IgG1 Fc is stated for Fc-hROR1; not restated for this construct)

[11] = molecular target: T6, Fc-mROR1 (mouse analogue of Fc-hROR1); assay: SPR (Biacore X100), Fc-mROR1 immobilized on CM5 chip
[12] = molecular target: T2, Fc-hROR1 (the three extracellular …); assay: SPR on immobilized Fc-hROR1; bivalent IgG1 R11 against monovalent Fab R11
[13] = molecular target: T8, hROR2-Fc (commercially available, R&D Systems) (human, UniProt Q01974 34-403); assay: ELISA, antigen immobilized, antibody in IgG1 format, absorbance at 405 nm
T8 construct: Bought from R&D Systems; also called human ROR2 (hROR2-Fc); not shown: Fc part of the bought fusion

Fc-hROR1fz = molecular target: T9, Fc-hROR1fz (human, UniProt Q01973 165-299, limits assumed); assay: ELISA, Fc fusion of one or two domains of human ROR1 immobilized, antibody in IgG1 format, absorbance at 405 nm
T9 construct: domain: Frizzled; not shown: Fc domain (human IgG1 Fc is stated for Fc-hROR1; not restated for this construct)

[14] = molecular target: T8, hROR2-Fc (commercially available, R&D …); assay: ELISA on immobilized hROR2-Fc (Fab data not shown)

T4 sequence (Q01973 312-391): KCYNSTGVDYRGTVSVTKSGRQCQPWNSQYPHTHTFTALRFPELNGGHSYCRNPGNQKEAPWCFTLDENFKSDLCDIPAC
T3 sequence (Q01973 30-147 limits assumed): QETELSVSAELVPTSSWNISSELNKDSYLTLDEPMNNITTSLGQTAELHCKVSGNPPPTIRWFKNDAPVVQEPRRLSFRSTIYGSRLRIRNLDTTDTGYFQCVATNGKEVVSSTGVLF
T1 sequence (Q01973 30-937): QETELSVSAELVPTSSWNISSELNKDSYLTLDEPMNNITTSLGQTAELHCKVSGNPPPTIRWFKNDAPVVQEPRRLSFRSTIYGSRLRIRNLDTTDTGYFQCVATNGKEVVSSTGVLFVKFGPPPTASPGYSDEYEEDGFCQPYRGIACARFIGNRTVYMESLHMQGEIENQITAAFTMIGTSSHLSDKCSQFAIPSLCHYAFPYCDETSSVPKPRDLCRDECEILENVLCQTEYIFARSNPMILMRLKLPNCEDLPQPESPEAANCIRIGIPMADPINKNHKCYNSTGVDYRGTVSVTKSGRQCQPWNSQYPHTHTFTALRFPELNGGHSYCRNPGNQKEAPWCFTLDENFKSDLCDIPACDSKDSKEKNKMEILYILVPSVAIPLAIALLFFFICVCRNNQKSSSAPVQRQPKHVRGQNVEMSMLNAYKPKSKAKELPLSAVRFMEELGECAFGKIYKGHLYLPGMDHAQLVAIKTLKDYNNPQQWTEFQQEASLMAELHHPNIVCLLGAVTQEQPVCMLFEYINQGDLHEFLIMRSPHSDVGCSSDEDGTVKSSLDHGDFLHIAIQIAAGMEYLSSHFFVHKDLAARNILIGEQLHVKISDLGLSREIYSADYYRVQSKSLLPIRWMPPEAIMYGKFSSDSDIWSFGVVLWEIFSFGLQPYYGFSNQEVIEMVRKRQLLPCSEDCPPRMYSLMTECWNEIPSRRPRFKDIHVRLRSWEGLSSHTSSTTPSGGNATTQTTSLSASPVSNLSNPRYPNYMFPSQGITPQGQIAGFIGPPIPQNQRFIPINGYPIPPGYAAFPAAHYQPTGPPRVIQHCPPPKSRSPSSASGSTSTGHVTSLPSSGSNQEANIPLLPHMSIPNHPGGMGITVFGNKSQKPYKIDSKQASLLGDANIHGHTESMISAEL
T2 sequence (Q01973 30-406): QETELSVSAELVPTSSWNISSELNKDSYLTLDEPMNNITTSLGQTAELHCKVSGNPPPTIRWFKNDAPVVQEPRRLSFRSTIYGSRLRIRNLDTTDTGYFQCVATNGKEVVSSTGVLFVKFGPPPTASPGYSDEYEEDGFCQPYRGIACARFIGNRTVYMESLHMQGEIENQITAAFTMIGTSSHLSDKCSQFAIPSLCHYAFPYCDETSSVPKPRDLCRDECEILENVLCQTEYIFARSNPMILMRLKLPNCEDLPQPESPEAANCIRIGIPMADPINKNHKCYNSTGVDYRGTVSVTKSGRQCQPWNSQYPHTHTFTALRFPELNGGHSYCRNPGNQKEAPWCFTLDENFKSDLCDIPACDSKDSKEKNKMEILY
T5 sequence (Q01973 30-299 limits assumed): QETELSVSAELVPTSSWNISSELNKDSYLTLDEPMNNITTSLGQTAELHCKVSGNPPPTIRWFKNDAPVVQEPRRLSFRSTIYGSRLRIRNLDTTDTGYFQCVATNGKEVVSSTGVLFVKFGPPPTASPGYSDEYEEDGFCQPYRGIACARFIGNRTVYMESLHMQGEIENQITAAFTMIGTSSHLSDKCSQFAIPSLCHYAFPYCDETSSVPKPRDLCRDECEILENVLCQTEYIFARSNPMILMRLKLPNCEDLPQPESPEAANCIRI
T6 sequence (Q9Z139 30-406): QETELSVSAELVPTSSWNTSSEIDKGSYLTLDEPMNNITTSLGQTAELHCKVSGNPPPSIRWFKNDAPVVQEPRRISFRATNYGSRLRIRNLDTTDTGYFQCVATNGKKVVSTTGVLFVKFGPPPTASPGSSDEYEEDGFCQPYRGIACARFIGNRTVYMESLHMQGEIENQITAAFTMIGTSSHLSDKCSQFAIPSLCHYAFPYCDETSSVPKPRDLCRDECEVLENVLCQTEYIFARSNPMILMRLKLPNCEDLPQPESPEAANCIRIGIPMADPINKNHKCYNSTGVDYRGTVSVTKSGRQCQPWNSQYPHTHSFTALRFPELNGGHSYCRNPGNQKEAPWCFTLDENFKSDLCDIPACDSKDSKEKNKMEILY
T8 sequence (Q01974 34-403 limits assumed): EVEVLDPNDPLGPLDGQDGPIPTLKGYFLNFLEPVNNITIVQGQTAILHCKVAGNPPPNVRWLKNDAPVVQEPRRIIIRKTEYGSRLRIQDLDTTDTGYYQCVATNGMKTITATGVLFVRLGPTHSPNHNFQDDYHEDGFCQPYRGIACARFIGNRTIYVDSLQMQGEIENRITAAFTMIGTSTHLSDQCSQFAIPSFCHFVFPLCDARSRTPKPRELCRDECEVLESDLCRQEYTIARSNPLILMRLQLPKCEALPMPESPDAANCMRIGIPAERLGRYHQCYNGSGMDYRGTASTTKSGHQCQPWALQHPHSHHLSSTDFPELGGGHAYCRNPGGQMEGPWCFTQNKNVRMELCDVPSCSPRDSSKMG
T7 sequence (Q01973 165-406 limits assumed): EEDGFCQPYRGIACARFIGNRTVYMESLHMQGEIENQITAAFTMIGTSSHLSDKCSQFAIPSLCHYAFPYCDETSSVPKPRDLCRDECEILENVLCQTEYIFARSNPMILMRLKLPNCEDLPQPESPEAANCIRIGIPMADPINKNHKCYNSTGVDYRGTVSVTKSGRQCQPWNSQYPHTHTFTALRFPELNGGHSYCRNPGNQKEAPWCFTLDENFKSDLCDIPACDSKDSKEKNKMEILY
T9 sequence (Q01973 165-299 limits assumed): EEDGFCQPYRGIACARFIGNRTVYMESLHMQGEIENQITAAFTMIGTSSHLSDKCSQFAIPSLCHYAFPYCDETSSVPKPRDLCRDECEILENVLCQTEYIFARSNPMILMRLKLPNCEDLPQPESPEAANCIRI

B1: chimeric rabbit/human IgG1 Y31 (antibody, V domains shown)
VH: QSLEESGGRLVTPGTPLTLTCTVSGIDLNSHWMSWVRQAPGKGLEWIGIIAASGSTYYANWAKGRFTISKTSTTVDLRIASPTTEDTATYFCARDYGDYRLVTFNIWGPGTLVTVSS
VL: ELVMTQTPSSVSAAVGGTVTINCQASQSIGSYLAWYQQKPGQPPKLLIYYASNLASGVPSRFSGSGSGTEYTLTISGVQREDAATYYCLGSLSNSDNVFGGGTELEIL
notes: IgG1 format from vector PIGG (human gamma 1 heavy and kappa light constant regions), made in HEK 293F cells; Biotinylated for flow cytometry; also called mAb Y31
MFI (cell surface human ROR1 [1]): 8.3 MFI | MFI (cell surface human ROR1 [2]): 21.6 MFI | factor of increase of virtual affinity, IgG1 against Fab [3]: 12 fold | binding result (Fc-hROR1ig [4]): no binding (tested: not given) | binding result (Fc-hROR1kr [5]): no binding (tested: not given) | binding result (Fc-hROR1ig+fz): no binding (tested: not given)

B2: chimeric rabbit/human Fab Y31 (Fab, V domains shown)
VH: B1 VH
VL: B1 VL
notes: Fab with human C kappa and human CH1; SPR: purified Fab-(His)6
binding result (Fc-hROR1ig [6]): no binding | binding result (Fc-hROR1kr [7]): no binding

B3: chimeric rabbit/human IgG1 R12 (antibody, V domains shown)
VH: QEQLVESGGRLVTPGGSLTLSCKASGFDFSAYYMSWVRQAPGKGLEWIATIYPSSGKTYYATWVNGRFTISSDNAQNTVDLQMNSLTAADRATYFCARDSYADDGALFNIWGPGTLVTISS
VL: ELVLTQSPSVSAALGSPAKITCTLSSAHKTDTIDWYQQLQGEAPRYLMQVQSDGSYTKRPGVPDRFSGSSSGADRYLIIPSVQADDEADYYCGADYIGGYVFGGGTQLTVTG
notes: IgG1 format from vector PIGG; The light chain is rabbit V lambda and human C kappa; the heavy chain has the human gamma 1 constant region; Made in HEK 293F cells; Biotinylated for flow cytometry; also called mAb R12
MFI (cell surface human ROR1 [1]): 97.9 MFI | MFI (cell surface human ROR1 [2]): 122 MFI | factor of increase of virtual affinity, IgG1 against Fab [8]: 5 fold | MFI (cell surface human ROR1 [9]): 89.4 MFI | binding result [10]: no binding (tested: not given) | binding result (Fc-hROR1ig [4]): no binding (tested: not given) | binding result (Fc-hROR1kr [5]): no binding (tested: not given) | binding result (Fc-hROR1fz+kr): no binding (tested: not given)

B4: chimeric rabbit/human Fab R12 (Fab, V domains shown)
VH: B3 VH
VL: B3 VL
notes: The light chain is rabbit V lambda with human C kappa; SPR: purified Fab-(His)6
binding result (Fc-hROR1ig [6]): no binding | binding result (Fc-hROR1kr [7]): no binding | binding result [11]: no binding (tested: 1.5 to 100 nM)

Other lines, results leading:

MFI (cell surface human ROR1 [1]): 18.1 MFI | MFI (cell surface human ROR1 [2]): 64.9 MFI | factor of increase of virtual affinity, IgG1 against Fab [12]: 14 fold | MFI (cell surface human ROR1 [9]): 6.6 MFI | binding result [13]: no binding (tested: not given) | binding result (Fc-hROR1ig [4]): no binding (tested: not given) | binding result (Fc-hROR1fz): no binding (tested: not given) | binding result (Fc-hROR1ig+fz): no binding (tested: not given)
B5: chimeric rabbit/human IgG1 R11 (antibody, V domains shown)
VH: QSVKESEGDLVTPAGNLTLTCTASGSDINDYPISWVRQAPGKGLEWIGFINSGGSTWYASWVKGRFTISRTSTTVDLKMTSLTTDDTATYFCARGYSTYYCDFNIWGPGTLVTISS
VL: ELVMTQTPSSTSGAVGGTVTINCQASQSIDSNLAWFQQKPGQPPTLLIYRASNLASGVPSRFSGSRSGTEYTLTISGVQREDAATYYCLGGVGNVSYRTSFGGGTEVVVK
notes: IgG1 format from vector PIGG (human gamma 1 heavy and kappa light constant regions), four polypeptide chains, made in HEK 293F cells; Biotinylated for flow cytometry; also called IgG1 11; mAb R11

binding result [14]: no binding
B6: chimeric rabbit/human Fab R11 (Fab, V domains shown)
VH: B5 VH
VL: B5 VL
notes: Fab with human C kappa and human CH1; For SPR it was the purified Fab-(His)6 from pET11a (HA tag removed, C-terminal His6)
